B1: RAM3 Fab-ΔpIII (Fab, V domains shown)
VH: QVQLVQSGGGVVQPGRSLRLSCAASGFTFSSYAMHWVRQAPGKGLEWVAVISYDGSNKYYADSVKGRFTISRDNSKNTLYLQMNSLRAEDKAVYYCARDSGGIAARLGGYFDLWGRGTTVTVSS
VL: DIRMTQSPSFLSASVGDRVTITCRASQGISSYLAWYQQKPGKAPKLLIYAASTLQSGVPSRFSGSGSGTEFTLTISSLQPEDFATYYCQQGPTFGGGTKVEIKR
notes: Human Fab made in E. coli from pFAB73H; VH is joined to human gamma 1 CH1 (residues 118 to 230), then a spacer with a trypsin site and truncated f1 phage pIII (ΔpIII); The light chain is VK plus human kappa constant domain; also called Fab-ΔpIII RAM3; RAM3 in the Fab-ΔpIII format
B2: RAM1 Fab-ΔpIII (Fab, V domains shown)
VH: QVQLVQSGGGVVQPGRSLRLSCAASGFTFSSYAMHWVRQAPGKGLEWVAVISYDGSNKYYADSVKGRFTISRDNSKNTLYLQMSSLRAEDTAVYYCVKGASSWSTGTLVTVSS
VL: DIVMMQSPATLSASVGDRVTITCRASQSISSWLAWYQQKPGKAPNLLIYKASSLESGVPSRFSGSGSGTEFTLTISSLQPDDFATYYCQQYKSFPYTFGQGTRLEIKR
notes: Human Fab made in E. coli from pFAB73H; VH is joined to human gamma 1 CH1 (residues 118 to 230 of the H chain), then a spacer with a trypsin cleavage site and truncated f1 phage protein pIII (ΔpIII); The light chain is VK plus human kappa constant domain; also called Fab-ΔpIII RAM1; RAM1 in the Fab-ΔpIII format
B3: RAM1 IgG1 (antibody, V domains shown)
VH: QVQLVQSGGGVVQPGRSLRLSCAASGFTFSSYAMHWVRQAPGKGLEWVAVISYDGSNKYYADSVKGRFTISRDNSKNTLYLQMSSLRAEDTAVYYCVKGASSWSTGTLVTVSS
VL: DIVMMQSPATLSASVGDRVTITCRASQSISSWLAWYQQKPGKAPNLLIYKASSLESGVPSRFSGSGSGTEFTLTISSLQPDDFATYYCQQYKSFPYTFGQGTRLEIKR
notes: Intact human IgG1 kappa, allotype G1m(a,z), made in CHO cells from pLNOH2 and pLNOK; also called IgG1 anti-MSP3; RAM1 in the IgG1 format
B4: recombinant MSP-3194-257 (other)
chain: HERAKNAYQKANQAVLKAKEASSYDYILGWEFGGGVPEHKKEENMLSHLYVSSKDKENISKENE
notes: also called panning antigen
B5: RAM2 Fab-ΔpIII (Fab, V domains shown)
VH: QVQLQESGGGLVKPGGSLKLSCAASGFTFSSYGMSWVRQTPDKRLEWVATISSGGSYTYYPDSVKGRFTISRDNAKNTLYLQMSSLKSEDTAMYYCARLYYGYRYYFDYWGQGTMVTVSS
VL: DIQLTQSPSSLSASIGDRVTITCQASQDITNSLNWYQQRPGQAPKLLIYDAFTLKTGVPSRFSGRGSGTSFTIAINSFQAEDIGTYFCQQSHRVPFTFGGGTRVEIKR
notes: Human Fab made in E. coli from pFAB73H; VH is joined to human gamma 1 CH1 (residues 118 to 230), then a spacer with a trypsin site and truncated f1 phage pIII (ΔpIII); The light chain is VK plus human kappa constant domain; also called Fab-ΔpIII RAM2; RAM2 in the Fab-ΔpIII format
B6: RAM2 IgG1 (antibody, V domains shown)
VH: QVQLQESGGGLVKPGGSLKLSCAASGFTFSSYGMSWVRQTPDKRLEWVATISSGGSYTYYPDSVKGRFTISRDNAKNTLYLQMSSLKSEDTAMYYCARLYYGYRYYFDYWGQGTMVTVSS
VL: DIQLTQSPSSLSASIGDRVTITCQASQDITNSLNWYQQRPGQAPKLLIYDAFTLKTGVPSRFSGRGSGTSFTIAINSFQAEDIGTYFCQQSHRVPFTFGGGTRVEIKR
notes: Intact human IgG1 kappa, allotype G1m(a,z), made in CHO cells

Key:
[1] = target: T1, native MSP-3 antigen of Plasmodium falciparum clone 3D7 schizonts and merozoites (Plasmodium falciparum); assay: flow cytometry on ethanol-fixed permeabilized schizonts, FITC anti-human Fab
T1 construct: whole, on cells; The motif 220-230 is also present in MSP-6; also called native malaria antigen; parasite proteins
Protocol: The gating was placed to include the majority of the infected cells. The gating was used for the histograms described below.
Parasites were then washed in PBS with 1% BSA, incubated over night with antibody (Fab-ΔpIII or IgG1), washed twice with PBS supplemented with 1% BSA and incubated for 30 minutes with FITC-conjugated goat anti-human Fab (Sigma F5512) diluted 1:25. Cells were analyzed in a Coulter EPICS-2 flow cytometer. Hib-CP specific antibody was used as control in corresponding concentrations.

[2] = target: B5; assay: antigen competition ELISA; soluble antigen 4 nM to 1250 nM against coated MSP-3194-257
[3] = target: B4; assay: direct ELISA, coated recombinant antigen
[4] = target: T2, synthetic peptide MSP-3211-237 (Plasmodium falciparum); assay: ELISA on synthetic peptides
T2 construct: also called MSP-3b
T2 peptide: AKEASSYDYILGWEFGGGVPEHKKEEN

[5] = target: T3, synthetic peptide MSP-3190-217 (Plasmodium falciparum); assay: ELISA on synthetic peptides
T3 peptide: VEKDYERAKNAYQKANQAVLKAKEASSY

| Binder | percent of events under the bar M1 [1] | further results |
| --- | --- | --- |
| B1 | 4% |  |
| B2 | 76% |  |
| B3 | 47% |  |
| B4 |  | binding result [2]: binds |
| B5 | 28% | binding result [3]: binds |
| B6 |  | binding result [4]: binds; binding result [5]: binds |

— patent US7811569 (INSTITUT PASTEUR, dated 2010)
